Patent US20150216795A1 (SANOFI, priority 2012, published 2015)

Legend:
[1] = tested on: patients with metastatic colorectal cancer (MCRC)
Source text: Each randomized patient was to be treated until disease progression, death, or unacceptable toxicity.
Treatment arms were evenly balanced for demographics, disease characteristics and prior anti-cancer treatments, including prior exposition to bevacizumab.
Patients received a median of 9 cycles of ZALTRAP/FOLFIRI or 8 cycles of placebo/FOLFIRI.

[2] = tested on: patients with metastatic colorectal cancer (MCRC); assay: EFC10262 (VELOUR) randomized double-blind phase 3 study: efficacy (OS, PFS, response rate);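 further: Placebo-controlled comparison, both arms on FOLFIRI every 2 weeks until progression or intolerable toxicity, in patients progressing on or within 6 months after oxaliplatin-based combination chemotherapy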
Source text: Each randomized patient was to be treated until disease progression, death, or unacceptable toxicity. […] The predefined statistical significance level for this final analysis was 0.0466 after adjusting the type I error spent for the two interim analyses using the O'Brien-Fleming spending function.
The study included one formal interim analysis, planned for the purpose of efficacy, when 561 death events (65% information time) had occurred. Upon request of the independent Data Monitoring Committee (DMC), an additional interim analysis of OS was performed to provide an early evaluation of the benefit-risk ratio, when 315 death events (36.5% information fraction) had occurred.
A total of approximately 863 deaths were required to detect 20% hazard rate reduction in OS with 90% power using the two-sided log rank test at an overall 0.0499 alpha level. The median survival times was expected to be 11 months for the control group. The overall alpha level was split between overall survival (0.0499) and progression-free survival as a secondary efficacy endpoint (0.0001).
Approximately 1200 patients (i.e. 600 patients per treatment group) were planned to be randomized. Treatment assignment was stratified according to prior therapy with bevacizumab (yes or no), and ECOG performance status (PS) (0 vs 1 vs 2).
The enrolment started in November 2007 and was completed in March 2010. A total of 1226 patients were randomized. […] Treatment arms were evenly balanced for demographics, disease characteristics and prior anti-cancer treatments, including prior exposition to bevacizumab.
Immediately after, patients received irinotecan, 5-FU and leucovorin (FOLFIRI regimen). This treatment was repeated every 2 weeks.
Study 1 was a randomized, double-blind, placebo-controlled study in patients with metastatic colorectal cancer (mCRC) who are resistant to or have progressed during or within 6 months of receiving oxaliplatin-based combination chemotherapy, with or without prior bevacizumab. A total of 1226 patients were randomized (1:1) to receive either ZALTRAP (N=612; 4 mg per kg as a 1 hour intravenous infusion on day 1) or placebo (N=614), in combination with 5-fluorouracil plus irinotecan [FOLFIRI: irinotecan 180 mg per m2 IV infusion over 90 minutes and leucovorin (dl racemic) 400 mg per m^2 intravenous infusion over 2 hours at the same time on day 1 using a Y-line, followed by 5-FU 400 mg per m^2 intravenous bolus, followed by 5-FU 2400 mg per m^2 continuous intravenous infusion over 46-hours]. The treatment cycles on both arms were repeated every 2 weeks. Patients were treated until disease progression or unacceptable toxicity. The primary efficacy endpoint was overall survival. Treatment assignment was stratified by the ECOG performance status (0 versus 1 versus 2) and according to prior therapy with bevacizumab (yes or no).

[3] = adverse reaction, N = 611, listed as ZALTRAP/FOLFIRI
[4] = compilation of clinical and laboratory data, N = 611, listed as ZALTRAP/FOLFIRI
[5] = Kaplan-Meier, IRC, ITT population
[6] = by IRC, evaluable patient population N = 531
[7] = overall survival, Kaplan-Meier, ITT population

Ziv-aflibercept/Folfiri: ziv-aflibercept 4 mg/kg in combination with FOLFIRI (folinic acid, 5-fluorouracil and irinotecan) given intravenously every 2 weeks
Grade 4 hypertension (hypertensive crisis) ([1]; 1 patient): 0.2%
Grade 3 compromised wound healing ([1]; 2 patients): 0.3%
Nephrotic syndrome ([1]; 2 patients): 0.5%
fistulas (anal, enterovesical, enterocutaneous, colovaginal, intestinal sites) ([1]; 9 of 611 patients with mCRC): 1.5%
Grade 3-4 ATE ([1]; 11 patients): 1.8%
Patients with any TEAE ([1]; Safety population N = 611): 606 (99.2%) number (%) of patients
Patients with any TEAE leading to death ([1]; Safety population N = 611): 37 (6.1%) number (%) of patients
Patients with any TEAE leading to permanent treatment discontinuation ([1]; Safety population N = 611): 164 (26.8%) number (%) of patients
Patients with any TEAE leading to premature treatment discontinuation ([1]; Safety population N = 611): 119 (19.5%) number (%) of patients
Patients with any grade 3-4 TEAE ([1]; Safety population N = 611): 510 (83.5%) number (%) of patients
Patients with any related TEAE leading to death ([1]; Safety population N = 611): 6 (1.0%) number (%) of patients
Patients with any serious TEAE ([1]; Safety population N = 611): 294 (48.1%) number (%) of patients
Cycle delays >7 days ([1]; Study 1): 60 % of patients
Infections, Grade 3-4 ([1]; Study 1): 12%
Infections, all grades ([1]; Study 1): 46%
Alopecia (PT), All Gr ([1]; TEAE, safety population): 26.8 % of patients
Asthenic condition (HLT), All Gr ([1]; TEAE, safety population): 60.4 % of patients
Asthenic condition (HLT), Gr 3/4 ([1]; TEAE, safety population): 16.9 % of patients
Constipation (PT), All Gr ([1]; TEAE, safety population): 22.4 % of patients
Constipation (PT), Gr 3/4 ([1]; TEAE, safety population): 0.8 % of patients
Decrease appetite (PT), All Gr ([1]; TEAE, safety population): 31.9 % of patients
Decrease appetite (PT), Gr 3/4 ([1]; TEAE, safety population): 3.4 % of patients
Dehydration (PT), All Gr ([1]; TEAE, safety population): 9.0 % of patients
Diarrhea (PT), All Gr ([1]; TEAE, safety population): 69.2 % of patients
Dysphonia (PT), All Gr ([1]; TEAE, safety population): 25.4 % of patients
Epistaxis (PT), All Gr ([1]; TEAE, safety population): 27.7 % of patients
GI and abdominal pains (HLT), All Gr ([1]; TEAE, safety population): 34.0 % of patients
GI and abdominal pains (HLT), Gr 3/4 ([1]; TEAE, safety population): 5.4 % of patients
Headache (PT), All Gr ([1]; TEAE, safety population): 22.3 % of patients
Hypertension (grouping), All Gr ([1]; TEAE, safety population): 41.4 % of patients
Hypertension (grouping), Gr 3/4 ([1]; TEAE, safety population): 19.3 % of patients
Infections (SOC), All Gr ([1]; TEAE, safety population): 46.2 % of patients
Musculoskeletal & connective pain & discomfort (HLT), All Gr ([1]; TEAE, safety population): 23.1 % of patients
Musculoskeletal & connective pain & discomfort (HLT), Gr 3/4 ([1]; TEAE, safety population): 1.3 % of patients
Nausea (PT), All Gr ([1]; TEAE, safety population): 53.4 % of patients
Palmar plantar erythrodysaesthesia (PT), All Gr ([1]; TEAE, safety population): 11.0 % of patients
Palmar plantar erythrodysaesthesia (PT), Gr 3/4 ([1]; TEAE, safety population): 2.8 % of patients
Skin hyperpigmentation (PT), All Gr ([1]; TEAE, safety population): 8.2 % of patients
Skin hyperpigmentation (PT), Gr 3/4 ([1]; TEAE, safety population): 0 % of patients
Stomatitis & ulceration (HLT), All Gr ([1]; TEAE, safety population): 54.8 % of patients
Stomatitis & ulceration (HLT), Gr 3/4 ([1]; TEAE, safety population): 13.7 % of patients
Vomiting (PT), All Gr ([1]; TEAE, safety population): 32.9 % of patients
Weight decrease (PT), All Gr ([1]; TEAE, safety population): 31.9 % of patients
Weight decrease (PT), Gr 3/4 ([1]; TEAE, safety population): 2.6 % of patients
Abdominal Pain Upper, All grades ([1]; adverse reaction, N = 611): 11%
Abdominal Pain Upper, Grades 3-4 ([1]; adverse reaction, N = 611): 1%
Abdominal Pain, All grades ([1]; adverse reaction, N = 611): 27%
Abdominal Pain, Grades 3-4 ([1]; adverse reaction, N = 611): 4%
Asthenia, All grades ([1]; adverse reaction, N = 611): 18%
Asthenia, Grades 3-4 ([1]; adverse reaction, N = 611): 5%
Decreased Appetite, All grades ([1]; adverse reaction, N = 611): 32%
Decreased Appetite, Grades 3-4 ([1]; adverse reaction, N = 611): 3%
Dehydration, All grades ([1]; adverse reaction, N = 611): 9%
Diarrhea, All grades ([1]; adverse reaction, N = 611): 69%
Dysphonia, All grades ([1]; adverse reaction, N = 611): 25%
Dyspnea, All grades ([1]; adverse reaction, N = 611): 12%
Epistaxis, All grades ([1]; adverse reaction, N = 611): 28%
Fatigue, All grades ([1]; adverse reaction, N = 611): 48%
Fatigue, Grades 3-4 ([1]; adverse reaction, N = 611): 13%
Headache, All grades ([1]; adverse reaction, N = 611): 22%
Headache, Grades 3-4 ([1]; adverse reaction, N = 611): 2%
Hemorrhoids, All grades ([1]; adverse reaction, N = 611): 6%
Hemorrhoids, Grades 3-4 ([1]; adverse reaction, N = 611): 0%
Hypertension, All grades ([1]; adverse reaction, N = 611): 41%
Hypertension, Grades 3-4 ([1]; adverse reaction, N = 611): 19%
Leukopenia, All grades ([1]; adverse reaction, N = 611): 78%
Leukopenia, Grades 3-4 ([1]; adverse reaction, N = 611): 16%
Neutropenia, All grades ([1]; adverse reaction, N = 611): 67%
Oropharyngeal Pain, All grades ([1]; adverse reaction, N = 611): 8%
Palmar-Plantar Erythrodysesthesia Syndrome, All grades ([1]; adverse reaction, N = 611): 11%
Palmar-Plantar Erythrodysesthesia Syndrome, Grades 3-4 ([1]; adverse reaction, N = 611): 3%
Proctalgia, All grades ([1]; adverse reaction, N = 611): 5%
Rectal Hemorrhage, All grades ([1]; adverse reaction, N = 611): 5%
Rhinorrhea, All grades ([1]; adverse reaction, N = 611): 6%
Rhinorrhea, Grades 3-4 ([1]; adverse reaction, N = 611): 0%
Skin Hyperpigmentation, All grades ([1]; adverse reaction, N = 611): 8%
Skin Hyperpigmentation, Grades 3-4 ([1]; adverse reaction, N = 611): 0%
Stomatitis, All grades ([1]; adverse reaction, N = 611): 50%
Stomatitis, Grades 3-4 ([1]; adverse reaction, N = 611): 13%
Thrombocytopenia, All grades ([1]; adverse reaction, N = 611): 48%
Thrombocytopenia, Grades 3-4 ([1]; adverse reaction, N = 611): 3%
Urinary Tract Infection, All grades ([1]; adverse reaction, N = 611): 9%
Weight decreased, All grades ([1]; adverse reaction, N = 611): 32%
Weight decreased, Grades 3-4 ([1]; adverse reaction, N = 611): 3%
Dehydration, Grades 3-4 [1, 3]: 4%
Diarrhea, Grades 3-4 [1, 3]: 19%
Neutropenia, Grades 3-4 [1, 3]: 37%
onset of Grade 3-4 hypertension during the first two cycles of treatment ([1]; among patients developing Grade 3-4 hypertension): 54%
Proteinuria, All grades [1, 4]: 62%
Proteinuria, Grades 3-4 [1, 4]: 8%
Grade 3-4 hemorrhagic events ([1]; including gastrointestinal hemorrhage, hematuria, post-procedural hemorrhage): 3%
ALT increased, All grades ([1]; laboratory finding, N = 611): 50%
ALT increased, Grades 3-4 ([1]; laboratory finding, N = 611): 3%
AST increased, All grades ([1]; laboratory finding, N = 611): 62%
AST increased, Grades 3-4 ([1]; laboratory finding, N = 611): 3%
Serum creatinine increased, All grades ([1]; laboratory finding, N = 611): 23%
Serum creatinine increased, Grades 3-4 ([1]; laboratory finding, N = 611): 0%
Arterial thromboembolic events (ATE) ([1]; patients with mCRC): 2.6%
Grade 3-4 VTE ([1]; patients with mCRC): 8%
Grade 3-4 febrile neutropenia ([1]; patients with mCRC): 4%
Grade 3-4 neutropenic infection/sepsis ([1]; patients with mCRC): 1.5%
Grade 3 hypertension ([1]; patients with mCRC): 19%
Pulmonary embolism ([1]; patients with mCRC): 5%
bleeding/hemorrhage (all grades) ([1]; patients with mCRC): 38%
severe hypersensitivity reactions ([1]; patients with mCRC): 0.3%
venous thromboembolic events (VTE) ([1]; patients with mCRC): 9%
PFS, Probability of surviving (99.99% CI), 3 months [2, 5]: 0.793
PFS, Probability of surviving (99.99% CI), 6 months [2, 5]: 0.573
PFS, Probability of surviving (99.99% CI), 9 months [2, 5]: 0.313
PFS, Probability of surviving (99.99% CI), 12 months [2, 5]: 0.166
PFS, Probability of surviving (99.99% CI), 18 months [2, 5]: 0.051
Progression Free Survival: Number of events, n (%) ([2]; Study 1, IRC): 393 (64.2%) n (%)
Overall Survival: Number of deaths, n (%) ([2]; Study 1, N = 612): 403 (65.8%) n (%)
Best Overall Response: Not evaluable, % [2, 6]: (4.0%)
Best Overall Response: Partial response, % [2, 6]: (19.8%)
Best Overall Response: Progressive disease, % [2, 6]: (10.4%)
Best Overall Response: Stable disease, % [2, 6]: (65.9%)
Overall Response: Responders (Complete response or Partial response), % [2, 6]: (19.8%)
Survival probability (95.34% CI), 3 months [2, 7]: 0.931
Survival probability (95.34% CI), 6 months [2, 7]: 0.819
Survival probability (95.34% CI), 9 months [2, 7]: 0.687
Survival probability (95.34% CI), 12 months [2, 7]: 0.561
Survival probability (95.34% CI), 18 months [2, 7]: 0.385
Survival probability (95.34% CI), 24 months [2, 7]: 0.280
overall survival HR (95% CI) ([2]; patients who received prior bevacizumab): 0.86
overall survival HR (95% CI) ([2]; patients without prior bevacizumab exposure): 0.79
